This note sets out measurements from patent publication US20240376218A1.

Experiment [1] addresses human CCR8 tagged with ProLink (human). Briefly: cell-based or functional assay.
The target in experiment [2] is human CCR8 (human) (UniProt P51685). Briefly: cell-based or functional assay.
Experiment [3] has as its target cynomolgus CCR8 (cynomolgus). Nature of the experiment: FACS, CHO cells expressing cynomolgus CCR8, signal at saturation. On the technique in general: A flow cytometer gives signals particle by particle.

cynomolgus CCR8 (cynomolgus), sequence (O97665 other isoform, or with tags, fused parts or gaps): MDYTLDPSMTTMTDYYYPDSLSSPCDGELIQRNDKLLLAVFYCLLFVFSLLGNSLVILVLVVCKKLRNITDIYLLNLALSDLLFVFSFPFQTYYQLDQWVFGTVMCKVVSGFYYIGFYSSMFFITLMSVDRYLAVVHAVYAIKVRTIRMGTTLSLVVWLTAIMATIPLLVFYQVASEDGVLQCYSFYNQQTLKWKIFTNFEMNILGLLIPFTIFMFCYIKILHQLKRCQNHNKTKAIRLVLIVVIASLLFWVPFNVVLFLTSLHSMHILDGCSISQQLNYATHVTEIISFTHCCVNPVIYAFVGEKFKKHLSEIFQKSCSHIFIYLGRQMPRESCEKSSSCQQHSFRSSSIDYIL

B1: 433H (antibody, from another filing, V domains shown)
VH: EVQLVETGGGLVQPKGSLRLSCAASGFPFNTFAMNWVRQAPGKGLEWLARIRSKSNNYATYYADSVKDRFTISRDDSRRMLYLLMNNVKFEDTAIYYCVRGKENNYGYAMDYWGQGTSVTVSS
VL: DIVMTQAAPSVPVTPGESVSISCRSSQSLLHSNGNTYLYWFLQRPGQSPQLLIYRMSNLASGVPDRFSGSGSGTAFTLRISRVEAEDVGVYYCMQHLEYPFTFGIGTKLELKR
For the molecule B1, the IC50 in nM for inhibition of CCL1 induced β-arrestin signaling (DiscoverX assay), CHO with hCCR8 in experiment [1] worked out at 0.78 nM. Also, in experiment [2], the Ca flux assay IC50 (nM), block of signaling induced by CCL1 at 60 ng/ml; CHO cells expressing human CCR8 was 1.3 nM; the Ca flux assay Span ratio (from max to min), block of signaling induced by CCL1 at 60 ng/ml; CHO cells expressing human CCR8 came out at 996; the Internalization [fold isotype], HuT78 cells, BODIPY FL-labelled antibody was determined as 22 fold isotype.

B2: Clone 433H (ICOS, BD) (antibody, from another filing, V domains shown)
VH: EVQLVETGGGLVQPKGSLRLSCAASGFPFNTFAMNWVRQAPGKGLEWLARIRSKSNNYATYYADSVKDRFTISRDDSRRMLYLLMNNVKFEDTAIYYCVRGKENNYGYAMDYWGQGTSVTVSS
VL: DIVMTQAAPSVPVTPGESVSISCRSSQSLLHSNGNTYLYWFLQRPGQSPQLLIYRMSNLASGVPDRFSGSGSGTAFTLRISRVEAEDVGVYYCMQHLEYPFTFGIGTKLELKR
Regarding B2, in experiment [3], the MFI was under 1000.
